From publication PMC9546771

Target: His-tagged human FcRn/β2-microglobulin complex (human) (UniProt P55899)
Experiment: SPR; Biacore 8K, CM5 chip; His-tagged human FcRn/β2-microglobulin captured (45-60 RU) on covalently linked anti-His antibody; IgG1 injected as two-fold, eight-step series 75 nM to 0.29 nM; 25 °C; 20 mM phosphate pH 6.0, 137 mM NaCl, 2.7 mM KCl, 0.05% Tween-20; 1:1 binding model, apparent constants, KD = kd/ka; n=3 …

Sequence of UniProt P55899 (P55899 24-297, chain 1 of 2): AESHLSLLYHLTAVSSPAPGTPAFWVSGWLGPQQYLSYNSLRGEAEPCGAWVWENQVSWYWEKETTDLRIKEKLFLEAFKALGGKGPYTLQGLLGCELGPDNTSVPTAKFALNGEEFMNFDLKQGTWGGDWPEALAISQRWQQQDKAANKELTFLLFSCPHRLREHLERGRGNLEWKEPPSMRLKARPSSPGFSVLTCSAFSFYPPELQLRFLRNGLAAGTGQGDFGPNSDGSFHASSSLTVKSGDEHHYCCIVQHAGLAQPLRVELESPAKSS
Sequence of UniProt P55899 (P61769 21-119, chain 2 of 2, further chain): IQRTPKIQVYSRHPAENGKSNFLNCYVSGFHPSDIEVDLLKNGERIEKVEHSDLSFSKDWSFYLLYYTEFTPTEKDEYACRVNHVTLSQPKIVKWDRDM

IgG1-Campath (antibody)
Kd: 67.6 nM | koff: 0.0439 s⁻¹ | kon: 649000 M⁻¹ s⁻¹
